Results reported in patent CN116535503A.

Key:
[1] = biological target: GDF15-HIS(百普赛斯，CAT#:GD5-H5149) (human) (UniProt Q99988); assay: BLI (ForteBio Octet), antibody captured at 10 μg/ml, GDF15 6.25-200 nM
[2] = biological target: GDF15-HIS(百普赛斯，CAT#:GD5-H5149) (human) (UniProt Q99988); assay: cell-based or functional assay
[3] = biological target: GDF15-HIS(百普赛斯，CAT#:GD5-H5149) (human) (UniProt Q99988); assay: ELISA, GDF15-HIS coated
[4] = biological target: GDF15-mFC蛋白(GDF15:Genbank登记号NM_004864.3;mFC:Genbank登记号AAH31470.1) (human; mouse) (UniProt Q99988); assay: competition ELISA: blocks GDF15-mFC binding to coated GFRAL-hFc

Sequence of GDF15-HIS(百普赛斯，CAT#:GD5-H5149) (human) (Q99988 197-308 limits assumed): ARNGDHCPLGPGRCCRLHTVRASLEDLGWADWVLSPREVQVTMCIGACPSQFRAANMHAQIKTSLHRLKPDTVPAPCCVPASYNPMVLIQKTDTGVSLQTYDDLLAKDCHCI

With “Ponsegromab(Pfizer;Drug Bank:D11909) (antibody)” the Kd [1] was < 1 pM, the koff [1] was < 1e-07 s⁻¹ and the kon [1] was 711000 M⁻¹ s⁻¹. The Bottom (fold luciferase activity), HEK293 SRE-LUC2-cRET-GFRAL reporter cells [2] was 1.07, the IC50(μg/ml), luciferase in HEK293 SRE-LUC2-cRET-GFRAL reporter cells stimulated with 5 ng/ml GDF15-His [2] was 0.0321 µg/mL and the EC50 [3] was 0.096 µg/mL. For the same substance, the OD450.Max [3] was 1.1 OD450, the IC50 [4] was 0.504 µg/mL and the OD450.Max [4] was 1.02 OD450.
